Laboratory results taken from patent US20150147342A1.

What was measured:
[1] = target: Full-length wild-type human Ang-1 (hAng-1-WT) (human) (UniProt Q15389); experiment: cell-based or functional assay
[2] = target: Full-length wild-type human Ang-1 (hAng-1-WT) (human) (UniProt Q15389); experiment: SPR, antibody captured on anti-human IgG, 25 C
[3] = target: Monomeric fibrinogen-like domain of human Ang2 (hAng-2FD) (human) (UniProt O15123); experiment: SPR, antibody captured on anti-human IgG, 25 C
[4] = target: wild-type human Ang-2 (hAng-2-WT) (human) (UniProt O15123); experiment: SPR, antibody captured on anti-human IgG, 25 C
[5] = target: Dimeric Human Ang-2FD-mFc (human) (UniProt O15123); experiment: SPR, antibody captured on anti-human kappa, 25 C
[6] = target: Dimeric fibrinogen-like domain of monkey (Macca fascicularis) Ang-2 conjugated to human IgG1 (monkey (Macca fascicularis)); experiment: SPR, antibody captured on anti-human kappa, 25 C
[7] = target: Dimeric fibrinogen-like domain of mouse (Mus musculus) Ang-2 conjugated to human IgG1 (mouse (Mus musculus)); experiment: SPR, antibody captured on anti-human kappa, 25 C
[8] = target: Dimeric Human Ang-2FD-mFc (human) (UniProt O15123); experiment: SPR, antibody captured on anti-human kappa, 37 C
[9] = target: Dimeric fibrinogen-like domain of monkey (Macca fascicularis) Ang-2 conjugated to human IgG1 (monkey (Macca fascicularis)); experiment: SPR, antibody captured on anti-human kappa, 37 C
[10] = target: Dimeric fibrinogen-like domain of mouse (Mus musculus) Ang-2 conjugated to human IgG1 (mouse (Mus musculus)); experiment: SPR, antibody captured on anti-human kappa, 37 C
[11] = target: Monomeric fibrinogen-like domain of human Ang2 (hAng-2FD) (human) (UniProt O15123); experiment: SPR, antibody captured on anti-human IgG, 37 C, steady-state
[12] = target: hAng-1-WT (human) (UniProt Q15389); experiment: SPR, 1 uM blocker + 10 nM hAng-1-WT over hTie-2-mFc surface (competitor), 25 C
[13] = target: hAng-1-WT (human) (UniProt Q15389); experiment: SPR, 1 uM blocker + 10 nM hAng-1-WT over hTie-2-mFc surface (competitor), 25 C; RU of Ang-1 bound to Tie-2
[14] = target: Monomeric fibrinogen-like domain of human Ang2 (hAng-2FD) (human) (UniProt O15123); experiment: SPR, peptibody captured
[15] = target: wild-type human Ang-2 (hAng-2-WT) (human) (UniProt O15123); experiment: SPR, peptibody captured
[16] = target: Full-length wild-type human Ang-1 (hAng-1-WT) (human) (UniProt Q15389); experiment: SPR, peptibody captured on anti-human IgG, 25 C
[17] = target: wild-type human Ang-2 (hAng-2-WT) (human) (UniProt O15123); experiment: SPR, peptibody captured on anti-human IgG, 25 C
[18] = target: wild-type human Ang-2 (hAng-2-WT) (human) (UniProt O15123); experiment: SPR, peptibody captured on anti-human IgG, 25 C; remark: listed apart in the source
[19] = target: Full-length wild-type human Ang-1 (hAng-1-WT) (human) (UniProt Q15389); experiment: SPR, peptibody captured on anti-human IgG, 25 C; remark: listed apart in the source
[20] = target: Full-length wild-type human Ang-1 (hAng-1-WT) (human) (UniProt Q15389); experiment: SPR, peptibody captured on anti-human IgG, 37 C
[21] = target: wild-type human Ang-2 (hAng-2-WT) (human) (UniProt O15123); experiment: SPR, peptibody captured on anti-human IgG, 37 C
[22] = target: Monomeric fibrinogen-like domain of human Ang2 (hAng-2FD) (human) (UniProt O15123); experiment: SPR, peptibody captured on anti-human IgG, 25 C, steady-state

Chain of Full-length wild-type human Ang-1 (hAng-1-WT) (human) (Q15389 20-498 limits assumed): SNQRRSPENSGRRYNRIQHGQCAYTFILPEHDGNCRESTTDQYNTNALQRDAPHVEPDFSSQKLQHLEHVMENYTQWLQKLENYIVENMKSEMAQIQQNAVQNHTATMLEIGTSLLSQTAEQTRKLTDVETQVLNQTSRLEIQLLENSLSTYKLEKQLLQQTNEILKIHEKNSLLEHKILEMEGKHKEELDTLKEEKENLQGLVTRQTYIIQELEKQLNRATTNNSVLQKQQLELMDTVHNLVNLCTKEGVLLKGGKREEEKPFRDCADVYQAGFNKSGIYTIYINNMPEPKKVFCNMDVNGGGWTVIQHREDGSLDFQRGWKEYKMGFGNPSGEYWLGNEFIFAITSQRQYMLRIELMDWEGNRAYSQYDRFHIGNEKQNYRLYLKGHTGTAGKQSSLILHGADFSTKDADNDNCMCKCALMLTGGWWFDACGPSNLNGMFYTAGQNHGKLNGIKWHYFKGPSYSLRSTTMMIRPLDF
Chain of Monomeric fibrinogen-like domain of human Ang2 (hAng-2FD) (human) (O15123 282-496 limits assumed): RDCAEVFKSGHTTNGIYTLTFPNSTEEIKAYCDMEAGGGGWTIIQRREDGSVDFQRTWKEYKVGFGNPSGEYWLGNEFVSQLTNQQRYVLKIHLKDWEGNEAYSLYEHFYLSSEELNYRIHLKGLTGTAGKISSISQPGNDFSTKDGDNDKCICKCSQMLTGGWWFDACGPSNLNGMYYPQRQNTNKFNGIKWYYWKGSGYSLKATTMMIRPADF
Chain of Dimeric Human Ang-2FD-mFc (human) (O15123 282-496 limits assumed): as above
Chain of Dimeric fibrinogen-like domain of monkey (Macca fascicularis) Ang-2 conjugated to human IgG1 (monkey (Macca fascicularis)) (chain, as listed by the source limits assumed): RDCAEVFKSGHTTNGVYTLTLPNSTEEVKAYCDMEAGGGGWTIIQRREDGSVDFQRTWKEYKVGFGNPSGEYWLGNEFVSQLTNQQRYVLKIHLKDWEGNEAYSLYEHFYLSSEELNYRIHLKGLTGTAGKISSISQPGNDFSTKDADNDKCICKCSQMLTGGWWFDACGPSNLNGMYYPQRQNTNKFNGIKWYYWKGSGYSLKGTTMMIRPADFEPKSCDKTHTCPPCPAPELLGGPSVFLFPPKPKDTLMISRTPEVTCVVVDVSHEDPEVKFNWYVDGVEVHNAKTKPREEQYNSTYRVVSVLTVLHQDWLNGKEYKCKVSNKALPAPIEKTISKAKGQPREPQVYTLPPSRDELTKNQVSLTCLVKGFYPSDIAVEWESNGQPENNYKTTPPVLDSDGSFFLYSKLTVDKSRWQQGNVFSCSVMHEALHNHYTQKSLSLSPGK
Chain of Dimeric fibrinogen-like domain of mouse (Mus musculus) Ang-2 conjugated to human IgG1 (mouse (Mus musculus)) (chain, as listed by the source limits assumed): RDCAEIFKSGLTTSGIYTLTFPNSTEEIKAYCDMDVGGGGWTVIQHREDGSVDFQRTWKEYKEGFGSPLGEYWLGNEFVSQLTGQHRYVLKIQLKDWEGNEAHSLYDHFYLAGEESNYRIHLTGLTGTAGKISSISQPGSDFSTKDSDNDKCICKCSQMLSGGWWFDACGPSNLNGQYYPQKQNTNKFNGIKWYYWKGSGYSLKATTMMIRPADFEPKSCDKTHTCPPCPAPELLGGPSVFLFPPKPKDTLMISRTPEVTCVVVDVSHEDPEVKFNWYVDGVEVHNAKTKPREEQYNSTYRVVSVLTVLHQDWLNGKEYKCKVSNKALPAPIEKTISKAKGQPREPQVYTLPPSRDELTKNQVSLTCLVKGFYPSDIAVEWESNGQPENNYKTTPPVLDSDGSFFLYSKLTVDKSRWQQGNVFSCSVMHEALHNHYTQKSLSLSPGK
Chain of wild-type human Ang-2 (hAng-2-WT) (human) (O15123 19-496 limits assumed): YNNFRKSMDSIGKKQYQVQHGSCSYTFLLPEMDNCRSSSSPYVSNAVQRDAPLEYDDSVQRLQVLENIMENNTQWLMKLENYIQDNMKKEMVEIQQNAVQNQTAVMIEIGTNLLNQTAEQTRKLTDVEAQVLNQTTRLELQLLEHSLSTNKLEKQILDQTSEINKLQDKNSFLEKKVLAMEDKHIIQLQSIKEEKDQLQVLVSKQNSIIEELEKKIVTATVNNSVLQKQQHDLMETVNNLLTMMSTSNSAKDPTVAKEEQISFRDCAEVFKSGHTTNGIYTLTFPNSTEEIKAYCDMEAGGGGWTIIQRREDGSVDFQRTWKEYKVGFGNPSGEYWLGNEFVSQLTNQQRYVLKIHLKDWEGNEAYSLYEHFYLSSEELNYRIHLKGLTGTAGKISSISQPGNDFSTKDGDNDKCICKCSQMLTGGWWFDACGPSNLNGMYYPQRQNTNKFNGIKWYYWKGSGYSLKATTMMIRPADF
Chain of hAng-1-WT (human) (Q15389 20-498 limits assumed): as the sequence (Q15389 20-498 limits assumed) above

Control IV: human anti-Ang-2 antibody with the variable regions of 3.19.3
inhibition of Ang-1-induced Tie-2 phosphorylation in EA.hy926 cells (Western blot) [1]: 100 nM
Kd [2]: 0.168 nM
T1/2 [2]: 1.75 h
koff [2]: 0.000111 s⁻¹
kon [2]: 660000 M⁻¹ s⁻¹
Kd [3]: 125 nM
T1/2 [3]: 19 s
koff [3]: 0.0356 s⁻¹
kon [3]: 284000 M⁻¹ s⁻¹
Kd [4]: 0.0722 nM
T1/2 [4]: 0.7 h
koff [4]: 0.000274 s⁻¹
kon [4]: 3.8e+06 M⁻¹ s⁻¹
Kd [5]: 0.0127 nM
T1/2 [5]: 4.48 h
Kd [6]: 0.0155 nM
T1/2 [6]: 5.7 h
Kd [7]: 0.0402 nM
T1/2 [7]: 4.82 h
Kd [8]: 0.00991 nM
T1/2 [8]: 3.07 h
Kd [9]: 0.0474 nM
T1/2 [9]: 1.78 h
Kd [10]: 0.054 nM
T1/2 [10]: 1.98 h
Kd [11]: 94 nM

Negative Control (irrelevant peptibody) (Fc fusion)
Percent of Negative Control Binding [12]: 100%
RU (average) [13]: 169 RU

Control II: peptibody that binds human Ang-2 having the amino acid sequence of 2XCon4(C) (Fc fusion)
Kd [14]: 90 nM
Kd [15]: 0.0447 nM
T1/2 [15]: 5.58 h
inhibition of Ang-1-induced Tie-2 phosphorylation in EA.hy926 cells (Western blot) [1]: 50 nM
Kd [16]: 0.0782 nM
T1/2 [16]: 5.43 h
koff [16]: 3.54e-05 s⁻¹
kon [16]: 453000 M⁻¹ s⁻¹
Kd [17]: 0.0447 nM
T1/2 [17]: 5.58 h
koff [17]: 3.45e-05 s⁻¹
kon [17]: 773000 M⁻¹ s⁻¹
Kd [18]: 0.652 nM
T1/2 [18]: 3.55 h
koff [18]: 5.41e-05 s⁻¹
kon [18]: 83000 M⁻¹ s⁻¹
Kd [19]: 0.0826 nM
T1/2 [19]: 7.67 h
koff [19]: 2.51e-05 s⁻¹
kon [19]: 304000 M⁻¹ s⁻¹
Kd [20]: 0.155 nM
T1/2 [20]: 4.43 h
koff [20]: 4.35e-05 s⁻¹
kon [20]: 281000 M⁻¹ s⁻¹
Kd [21]: 3.09 nM
T1/2 [21]: 1.65 h
koff [21]: 0.000117 s⁻¹
kon [21]: 37900 M⁻¹ s⁻¹
Kd [22]: 90 nM
